# In article PMC10524338 (Structure (London, England : 1993), 2023):
# Residue numbers refer to the chain shown, from its start. Numbers in names are those of the source.
# T1: GST-Kapβ2 (UniProt Q92973-2 1-890)
# T1 sequence (looked up): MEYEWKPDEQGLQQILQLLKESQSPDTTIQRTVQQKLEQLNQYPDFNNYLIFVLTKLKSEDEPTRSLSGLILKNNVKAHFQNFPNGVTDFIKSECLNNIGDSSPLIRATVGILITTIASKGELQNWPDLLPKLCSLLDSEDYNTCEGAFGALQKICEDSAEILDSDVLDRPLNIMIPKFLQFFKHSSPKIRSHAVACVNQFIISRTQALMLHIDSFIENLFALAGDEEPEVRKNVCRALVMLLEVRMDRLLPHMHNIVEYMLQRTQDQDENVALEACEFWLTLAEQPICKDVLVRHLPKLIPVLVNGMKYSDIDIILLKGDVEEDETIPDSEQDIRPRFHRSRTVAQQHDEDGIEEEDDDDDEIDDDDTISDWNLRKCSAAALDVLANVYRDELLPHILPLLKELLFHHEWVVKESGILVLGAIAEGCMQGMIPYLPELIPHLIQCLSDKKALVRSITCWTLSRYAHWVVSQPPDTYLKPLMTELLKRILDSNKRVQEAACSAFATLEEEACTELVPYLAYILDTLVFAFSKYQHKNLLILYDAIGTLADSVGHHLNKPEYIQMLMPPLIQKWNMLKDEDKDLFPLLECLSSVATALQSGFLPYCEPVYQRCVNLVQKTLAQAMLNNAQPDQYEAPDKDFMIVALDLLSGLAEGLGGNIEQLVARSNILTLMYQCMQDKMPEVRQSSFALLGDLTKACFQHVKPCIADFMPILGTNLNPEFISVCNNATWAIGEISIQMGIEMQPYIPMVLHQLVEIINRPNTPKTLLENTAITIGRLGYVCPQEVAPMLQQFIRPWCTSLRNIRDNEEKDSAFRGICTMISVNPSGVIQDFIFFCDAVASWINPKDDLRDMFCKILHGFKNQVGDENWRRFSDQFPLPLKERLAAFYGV
# T2: Karyopherin-β2 (Kapβ2), wild type, GST tag removed (UniProt Q92973-2 1-890)
# T2 sequence (looked up): T1 sequence (looked up)
# T3: Kapβ2(W373A), GST tag removed (UniProt Q92973-2 1-890, W373A)
# T3 sequence (looked up): T1 sequence (looked up) with W373A
# B1: MBP-HNRNPH2(103-225) P213A (domain or fragment, UniProt P55795 103-225, looked up)
# chain: NSPDTANDGFVRLRGLPFGCSKEEIVQFFSGLEIVPNGMTLPVDFQGRSTGEAFVQFASQEIAEKALKKHKERIGHRYIEIFKSSRAEVRTHYDPPRKLMAMQRPGPYDRAGAGRGYNSIGRG
# B2: MBP-HNRNPH2(103-225) R212K (domain or fragment, UniProt P55795 103-225, looked up)
# chain: B1 chain with R110K, A111P
# B3: HNRNPH2(103-225) as in the cryo-EM sample (domain or fragment, UniProt P55795 103-225, looked up)
# chain: B1 chain with A111P
# modifications: mildly cross-linked to Kapβ2 with 0.025% glutaraldehyde
# B4: MBP-HNRNPH2(103-225) WT (domain or fragment, UniProt P55795 103-225, looked up)
# chain: B1 chain with A111P
# B5: MBP-HNRNPH2(103-225) P209L (domain or fragment, UniProt P55795 103-225, looked up)
# chain: B1 chain with P107L, A111P
# B6: MBP-HNRNPH2(103-225) R206Q (domain or fragment, UniProt P55795 103-225, looked up)
# chain: B1 chain with R104Q, A111P
# B7: MBP-HNRNPH2(103-225) R206W (domain or fragment, UniProt P55795 103-225, looked up)
# chain: B1 chain with R104W, A111P
# B8: MBP-HNRNPH2(103-225) R212A (domain or fragment, UniProt P55795 103-225, looked up)
# chain: B1 chain with R110A, A111P
# Molecular target: T1, GST-Kapβ2
# Experiment: pull-down
row,Binder,binding result
1,B1,binds
2,B2,binds

# Molecular target: T2, Karyopherin-β2 (Kapβ2), wild type, GST …
# Experiment: cryo-EM structure
row,Binder,binding result
1,B3,binds

# Molecular target: T2, Karyopherin-β2 (Kapβ2), wild type, GST …
# Experiment: ITC
row,Binder,Kd [µM]
1,B4,0.05
2,B5,16.3
3,B6,3.6
4,B7,5.2
5,B8,3.2
6,"EVRTHYDPPRKLMAMQRPGPYDRPGAGRGYNSIGRG (domain or fragment, UniProt P55795 190-225, looked up) [MBP-HNRNPH2 PY-NLS (190-225)]",0.04
7,"ERPAQNEKRKEKNIKRGGNRFEPYANPTKR (domain or fragment, UniProt P52272 41-70, looked up) [MBP-HNRNPM PY-NLS (41-70)]",0.009

# Molecular target: T3, Kapβ2(W373A), GST tag removed
# Experiment: ITC
row,Binder,Kd [µM]
1,B4,6.1
2,"ERPAQNEKRKEKNIKRGGNRFEPYANPTKR (domain or fragment, UniProt P52272 41-70, looked up) [MBP-HNRNPM PY-NLS (41-70)]",0.0045
